This experiment has as its target E1′ (CHIKV E1 ectodomain construct) (Chikungunya virus).

As usually defined, the EC50 is the concentration giving half of the maximal effect. The substance chCHK-166^pMAZ (antibody) gave an EC50 of 2.2 nM.

The values above are taken from US20220265806A1.
